The supplement of paper PMC10567573

B1: INTS4 (parent)
chain: AKQIMEETYKMEFMYSGVENKQVV

Variants of: B1
Experiment: protein stability index of a GFP-peptide fusion (GPS, HEK-293T) (PSI 1-6); higher = more stable
Details: c terminus: a fixed tail appended
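Further: lentivirally expressed fusions sorted by FACS into six bins by GFP to DsRed ratio, PSI derived from sequencing read proportions per bin multiplied by bin number.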

Row | Variant | protein stability index
1 | AKQIMEETYKMEFMYSGVENKHVV | 1.98
2 | AKQIMEETYKMEFMYSGVENKWVV | 1.02
3 | AKQIMEETYKMEFMYSGVENKCVV | 2.97
4 | AKQIMEETYKMEFMYSGVENKNVV | 1.31
5 | AKQIMEETYKMEFMYSGVENKKVV | 1.47
6 | AKQIMEETYKMEFMYSGVENKEVV | 1.48
7 | AKQIMEETYKMEFPYSGVENKQVV | 3.88
8 | AKQIMEETYKMEFDYSGVENKQVV | 3.4
9 | AKQIMEETYKMEFVYSGVENKQVV | 1.71
10 | AKQIMEETYKMEFQYSGVENKQVV | 2.11
11 | AKQIMEETYKMEFAYSGVENKQVV | 2.25
12 | AKQIMEETYKMEFGYSGVENKQVV | 2.43
13 | AKQIMEETYKMEFKYSGVENKQVV | 1.71
14 | AKQIMEETYKMEFNYSGVENKQVV | 1.99
15 | AKQIMEETYKMEFHYSGVENKQVV | 1.87
16 | AKQIMEETYKMEFTYSGVENKQVV | 1.63
17 | AKQIMEETYKMEFEYSGVENKQVV | 2.54
18 | AKQIMEETYKMEFSYSGVENKQVV | 1.66
19 | AKQIMEETYKMEFIYSGVENKQVV | 1.54
20 | AKQIMEETYKMEFLYSGVENKQVV | 2.17
21 | AKQIMEETYKMEFWYSGVENKQVV | 2.02
22 | AKQIMEETYKMEFYYSGVENKQVV | 1.25
23 | AKQIMEETYKMEFFYSGVENKQVV | 1.77
24 | AKQIMEETYKMEFCYSGVENKQVV | 1.98

Row | Variant | protein stability index
25 | AKQIMEETYKMEFMYSGVYNKQVV | 1.09
26 | AKQIMEETYKMEFMYSGVKNKQVV | 1.07
27 | AKQIMEETYKMEFMYSGVHNKQVV | 2.06
28 | AKQIMEETYKMEFMYSGVLNKQVV | 1.2
29 | AKQIMEETYKMEFMYSGVRNKQVV | 1.95
30 | AKQIMEETYKMEFMYSGVDNKQVV | 1.78
31 | AKQIMEETYKMEFMYSGVQNKQVV | 1.84
32 | AKQIMEETYKMEFMYSGVNNKQVV | 1.91
33 | AKQIMEETYKMEFMYSGVTNKQVV | 1.85
34 | AKQIMEETYKMEFMYSGVGNKQVV | 1.9
35 | AKQIMEETYKMEFMYSGVANKQVV | 2.52
36 | AKQIMEETYKMEFMYSGVINKQVV | 1.54
37 | AKQIMEETYKMEFMYSGVPNKQVV | 1.56
38 | AKQIMEETYKMEFMYSGVVNKQVV | 1.28
39 | AKQIMEETYKMEFMYSGTENKQVV | 1.71
40 | AKQIMEETYKMEFMYSGDENKQVV | 1.88
41 | AKQIMEETYKMEFMYSGIENKQVV | 1.69
42 | AKQIMEETYKMEFMYSGYENKQVV | 1.9
43 | AKQIMEETYKMEFMYSGWENKQVV | 1.95
44 | AKQIMEETYKMEFMYSGGENKQVV | 2.12
45 | AKQIMEETYKMEFMYSGHENKQVV | 1.87
46 | AKQIMEETYKMEFMYSGRENKQVV | 1.54
47 | AKQIMEETYKMEFMYSGCENKQVV | 1.92
48 | AKQIMEETYKMEFMYSGKENKQVV | 2.72

Row | Variant | protein stability index
49 | AKQIMEETYKMEFMYSGMENKQVV | 1.75
50 | AKQIMEETYKMEFMYSGAENKQVV | 2.04
51 | AKQIMEETYKMEFMYSGLENKQVV | 2.12
52 | AKQIMEETYKMEFMYSGEENKQVV | 2.78
53 | AKQIMEETYKMEFMYSGQENKQVV | 2.34
54 | AKQIMEETYKMEFMYSGPENKQVV | 2.5
55 | AKQIMEETYKMEFMYSGSENKQVV | 2.07
56 | AKQIMEETYKMEFMYSGNENKQVV | 2.02
57 | AKQIMEETYKMEYMYSGVENKQVV | 2.96
58 | AKQIMEETYKMEGMYSGVENKQVV | 3.94
59 | AKQIMEETYKMEVMYSGVENKQVV | 1.67
60 | AKQIMEETYKMEEMYSGVENKQVV | 4.3
61 | AKQIMEETYKMEDMYSGVENKQVV | 4.6
62 | AKQIMEETYKMEMMYSGVENKQVV | 1.86
63 | AKQIMEETYKMETMYSGVENKQVV | 3.57
64 | AKQIMEETYKMELMYSGVENKQVV | 2.26
65 | AKQIMEETYKMEPMYSGVENKQVV | 3.66
66 | AKQIMEETYKMEAMYSGVENKQVV | 4.23
67 | AKQIMEETYKMEHMYSGVENKQVV | 4.01
68 | AKQIMEETYKMEQMYSGVENKQVV | 3.12
69 | AKQIMEETYKMEKMYSGVENKQVV | 3.12
70 | AKQIMEETYKMERMYSGVENKQVV | 3.52
71 | AKQIMEETYKMESMYSGVENKQVV | 4.24
72 | AKQIMEETYKMEWMYSGVENKQVV | 1.79

Row | Variant | protein stability index
73 | AKQIMEETYKMENMYSGVENKQVV | 4.04
74 | AKQIMEETYKMECMYSGVENKQVV | 2.96
75 | AKQIMEETYKMEFMYSGVEYKQVV | 1.73
76 | AKQIMEETYKMEFMYSGVEFKQVV | 2.86
77 | AKQIMEETYKMEFMYSGVETKQVV | 1.36
78 | AKQIMEETYKMEFMYSGVEDKQVV | 1.33
79 | AKQIMEETYKMEFMYSGVESKQVV | 1.44
80 | AKQIMEETYKMEFMYSGVELKQVV | 1.29
81 | AKQIMEETYKMEFMYSGVEVKQVV | 1.17
82 | AKQIMEETYKMEFMYSGVEGKQVV | 2.55
83 | AKQIMEETYKMEFMYSGVEQKQVV | 2.84
84 | AKQIMEETYKMEFMYSGVEHKQVV | 1.59
85 | AKQIMEETYKMEFMYSGVEEKQVV | 2.44
86 | AKQIMEETYKMEFMYSGVEWKQVV | 3.06
87 | AKQIMEETYKMEFMYSGVEPKQVV | 1.72
88 | AKQIMEETYKMEFMYSGVEKKQVV | 1.46
89 | AKQIMEETYKMEFMYSGVENKQPV | 1.42
90 | AKQIMEETYKMEFMYSGVENKQRV | 1.95
91 | AKQIMEETYKMEFMYSGVENKQSV | 1.76
92 | AKQIMEETYKMEFMYSGVENKQKV | 1.71
93 | AKQIMEETYKMEFMYSGVENKQMV | 3.75
94 | AKQIMEETYKMEFMYSGVENKQEV | 1.97
95 | AKQIMEETYKMEFMYSGVENKQNV | 2.18
96 | AKQIMEETYKMEFMYSGVENKQCV | 1.6

Row | Variant | protein stability index
97 | AKQIMEETYKMEFMYSGVENKQTV | 1.46
98 | AKQIMEETYKMEFMYSGVENKQGV | 1.32
99 | AKQIMEETYKMEFMYSGVENKQIV | 2.2
100 | AKQIMEETYKMEFMYSGVENKQFV | 1.16
101 | AKQIMEETYKMEFMYSGVENKQDV | 1.68
102 | AKQIMEETYKMEFMYSGVENKQAV | 1.8
103 | AKQIMEETYKMEFMYSGVENKQHV | 1.88
104 | AKQIMEETYKMEFMYSPVENKQVV | 1.29
105 | AKQIMEETYKMEFMYSNVENKQVV | 1.48
106 | AKQIMEETYKMEFMYSEVENKQVV | 1.55
107 | AKQIMEETYKMEFMYSTVENKQVV | 1.06
108 | AKQIMEETYKMEFMYSDVENKQVV | 1.84
109 | AKQIMEETYKMEFMYSCVENKQVV | 2.87
110 | AKQIMEETYKMEFMYSSVENKQVV | 1.59
111 | AKQIMEETYKMEFMYSLVENKQVV | 1.49
112 | AKQIMEETYKMEFMYSMVENKQVV | 1.65
113 | AKQIMEETYKMEFMYSAVENKQVV | 1.51
114 | AKQIMEETYKMEFMYSYVENKQVV | 1.84
115 | AKQIMEETYKMEFMYSQVENKQVV | 2.37
116 | AKQIMEETYKMEFMYSHVENKQVV | 2.5
117 | AKQIMEETYKMEFMYAGVENKQVV | 2.15
118 | AKQIMEETYKMEFMYYGVENKQVV | 1.76
119 | AKQIMEETYKMEFMYLGVENKQVV | 2.08
120 | AKQIMEETYKMEFMYKGVENKQVV | 1.7

Row | Variant | protein stability index
121 | AKQIMEETYKMEFMYFGVENKQVV | 3.1
122 | AKQIMEETYKMEFMYNGVENKQVV | 1.98
123 | AKQIMEETYKMEFMYRGVENKQVV | 1.36
124 | AKQIMEETYKMEFMYCGVENKQVV | 2.1
125 | AKQIMEETYKMEFMYHGVENKQVV | 1.41
126 | AKQIMEETYKMEFMYIGVENKQVV | 2.62
127 | AKQIMEETYKMEFMYMGVENKQVV | 2.24
128 | AKQIMEETYKMEFMYGGVENKQVV | 2.14
129 | AKQIMEETYKMEFMYQGVENKQVV | 1.91
130 | AKQIMEETYKMEFMYPGVENKQVV | 2
131 | AKQIMEETYKMEFMYTGVENKQVV | 1.56
132 | AKQIMEETYKMEFMYDGVENKQVV | 1.86
133 | AKQIMEETYKMEFMYSGVENHQVV | 1.75
134 | AKQIMEETYKMEFMYSGVENPQVV | 2.99
135 | AKQIMEETYKMEFMYSGVENCQVV | 1.92
136 | AKQIMEETYKMEFMYSGVENSQVV | 2.51
137 | AKQIMEETYKMEFMYSGVENGQVV | 2.5
138 | AKQIMEETYKMEFMYSGVENFQVV | 3.8
139 | AKQIMEETYKMEFMYSGVENMQVV | 2.07
140 | AKQIMEETYKMEFMYSGVENNQVV | 2.25
141 | AKQIMEETYKMEFMDSGVENKQVV | 2.37
142 | AKQIMEETYKMEFMHSGVENKQVV | 1.88
143 | AKQIMEETYKMEFMTSGVENKQVV | 2.08
144 | AKQIMEETYKMEFMPSGVENKQVV | 3.04

Row | Variant | protein stability index
145 | AKQIMEETYKMEFMRSGVENKQVV | 2.67
146 | AKQIMEETYKMEFMCSGVENKQVV | 1.93
147 | AKQIMEETYKMEFMESGVENKQVV | 2.9
148 | AKQIMEETYKMEFMKSGVENKQVV | 2.62
149 | AKQIMEETYKMEFMVSGVENKQVV | 1.69
150 | AKQIMEETYKMEFMASGVENKQVV | 2.57
151 | AKQIMEETYKMEFMLSGVENKQVV | 3.19
152 | AKQIMEETYKMEFMISGVENKQVV | 2
153 | AKQIMEETYKMEFMSSGVENKQVV | 2.15
154 | AKQIMEETYKMEFMNSGVENKQVV | 2.31
155 | AKQIMEETYKMEFMQSGVENKQVV | 2.61
156 | AKQIMEETYKMEFMMSGVENKQVV | 2.54
157 | AKQIMEETYKMEFMWSGVENKQVV | 1.67
158 | AKQIMEETYKMEFMGSGVENKQVV | 1.55
159 | AKQIMEETYKMDFMYSGVENKQVV | 2.18
160 | AKQIMEETYKMTFMYSGVENKQVV | 2.33
161 | AKQIMEETYKMYFMYSGVENKQVV | 2.44
162 | AKQIMEETYKMPFMYSGVENKQVV | 3.16
163 | AKQIMEETYKMNFMYSGVENKQVV | 1.81
164 | AKQIMEETYKMAFMYSGVENKQVV | 2.97
165 | AKQIMEETYKMMFMYSGVENKQVV | 2.43
166 | AKQIMEETYKMFFMYSGVENKQVV | 1.95
167 | AKQIMEETYKMSFMYSGVENKQVV | 1.61
168 | AKQIMEETYKMRFMYSGVENKQVV | 2.34

Row | Variant | protein stability index
169 | AKQIMEETYKMGFMYSGVENKQVV | 2.66
170 | AKQIMEETYKMCFMYSGVENKQVV | 1.6
171 | AKQIMEETYKMKFMYSGVENKQVV | 1.59
172 | AKQIMEETYKMVFMYSGVENKQVV | 1.06
173 | AKQIMEETYKMQFMYSGVENKQVV | 2.42
174 | AKQIMEETYKMWFMYSGVENKQVV | 2.48
175 | AKQIMEETYKMHFMYSGVENKQVV | 2.32
176 | AKQIMEETYKMEFMYSGVENKQVK | 1.98
177 | AKQIMEETYKMEFMYSGVENKQVT | 1.72
178 | AKQIMEETYKMEFMYSGVENKQVE | 1.78
179 | AKQIMEETYKMEFMYSGVENKQVH | 1.65
180 | AKQIMEETYKMEFMYSGVENKQVA | 1.75
181 | AKQIMEETYKMEFMYSGVENKQVN | 2.44
182 | AKQIMEETYKMEFMYSGVENKQVD | 2.56
183 | AKQIMEETYKMEFMYSGVENKQVP | 2.54
184 | AKQIMEETYKMEFMYSGVENKQVW | 2.33
185 | AKQIMEETYKMEFMYSGVENKQVQ | 1.89
186 | AKQIMEETYKMEFMYSGVENKQVL | 1.73
187 | AKQIMEETYKMEFMYSGVENKQVI | 1.51
188 | AKQIMEETYKMEFMYSGVENKQVY | 2.01
